Experimental data taken from patent US20190065668A1, “STRUCTURE OF […] IN COMPLEX WITH AN INHIBITOR AND USES THEREOF” (priority 2015, published 2019).

Tests used:
[1] = biological target: recombinant P. vivax plasmepsin V (residues R35-R476), N-terminal fusion tag removed with TEV protease (Plasmodium vivax) (UniProt A5K302); assay: SPR, Biacore 4000, plasmepsin V amine-coupled on a CM5 chip, compound as analyte, 1:1 fit, 25 °C
[2] = biological target: recombinant P. vivax plasmepsin V (residues R35-R476), N-terminal fusion tag removed with TEV protease (Plasmodium vivax) (UniProt A5K302); assay: SPR, Biacore 4000, plasmepsin V amine-coupled on a CM5 chip
[3] = biological target: recombinant P. vivax plasmepsin V (residues R35-R476), N-terminal fusion tag removed with TEV protease (Plasmodium vivax) (UniProt A5K302); assay: SPR, Biacore 4000, plasmepsin V amine-coupled on a CM5 chip, 1:1 fit
[4] = biological target: recombinant P. vivax plasmepsin V (residues R35-R476), N-terminal fusion tag removed with TEV protease (Plasmodium vivax) (UniProt A5K302); assay: cell-based or functional assay
[5] = biological target: recombinant P. falciparum plasmepsin V (residues N80-R528) (Plasmodium falciparum) (UniProt Q8I6Z5); assay: cell-based or functional assay
Chain of recombinant P. falciparum plasmepsin V (residues N80-R528) (Plasmodium falciparum) (Q8I6Z5 80-528): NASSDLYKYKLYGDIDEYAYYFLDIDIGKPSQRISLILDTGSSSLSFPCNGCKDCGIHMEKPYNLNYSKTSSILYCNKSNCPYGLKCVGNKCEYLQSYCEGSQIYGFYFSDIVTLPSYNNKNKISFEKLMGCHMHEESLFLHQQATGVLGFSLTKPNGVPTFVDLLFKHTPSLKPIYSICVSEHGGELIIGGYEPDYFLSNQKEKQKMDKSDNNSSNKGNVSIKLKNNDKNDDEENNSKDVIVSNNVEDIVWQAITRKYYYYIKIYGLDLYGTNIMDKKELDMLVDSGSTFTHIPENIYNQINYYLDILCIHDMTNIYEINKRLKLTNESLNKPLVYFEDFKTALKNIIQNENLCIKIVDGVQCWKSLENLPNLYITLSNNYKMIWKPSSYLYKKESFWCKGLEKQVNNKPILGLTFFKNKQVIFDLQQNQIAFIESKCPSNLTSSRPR

Chain of recombinant P. vivax plasmepsin V (residues R35-R476), N-terminal fusion tag removed with TEV protease (Plasmodium vivax) (A5K302 35-476, tags or fused parts left off): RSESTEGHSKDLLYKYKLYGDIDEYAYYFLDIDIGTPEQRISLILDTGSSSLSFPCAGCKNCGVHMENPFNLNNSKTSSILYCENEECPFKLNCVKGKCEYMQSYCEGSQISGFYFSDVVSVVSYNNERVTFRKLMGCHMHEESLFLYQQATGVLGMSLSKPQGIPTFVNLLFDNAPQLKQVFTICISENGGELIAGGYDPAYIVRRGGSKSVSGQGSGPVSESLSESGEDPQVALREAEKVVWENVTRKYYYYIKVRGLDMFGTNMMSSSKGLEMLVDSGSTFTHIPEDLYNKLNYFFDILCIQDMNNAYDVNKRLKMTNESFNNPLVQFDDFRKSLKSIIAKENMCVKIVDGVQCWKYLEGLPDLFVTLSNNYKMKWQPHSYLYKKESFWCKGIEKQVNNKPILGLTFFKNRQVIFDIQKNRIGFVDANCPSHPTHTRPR

Row | Substance | Kd [1] [nM] | fold affinity against WEHI-916 [2] [fold] | koff [3] [s⁻¹] | IC50, inhibition of cleavage of the fluorogenic KAHRP PEXEL peptide [4] [nM] | IC50, inhibition of cleavage of the fluorogenic KAHRP PEXEL peptide [5] [nM]
1 | WEHI-842, Cbz-Cav(NH2)-Val-Sta-NH(CH2)2Ph.TFA (peptide) | 13.4 | > 2 | 0.00111 | 1.6 | 
2 | WEHI-916 (peptide) | 42 |  | 0.00247 | 8.2 | 12.9
